Here are results for 1 substance from US10829540.

In this experiment the target is human P2X4 (human) (UniProt Q99571). The experiment can be described thus: cell-based or functional assay.
Chain of human P2X4 (human) (Q99571 whole entry): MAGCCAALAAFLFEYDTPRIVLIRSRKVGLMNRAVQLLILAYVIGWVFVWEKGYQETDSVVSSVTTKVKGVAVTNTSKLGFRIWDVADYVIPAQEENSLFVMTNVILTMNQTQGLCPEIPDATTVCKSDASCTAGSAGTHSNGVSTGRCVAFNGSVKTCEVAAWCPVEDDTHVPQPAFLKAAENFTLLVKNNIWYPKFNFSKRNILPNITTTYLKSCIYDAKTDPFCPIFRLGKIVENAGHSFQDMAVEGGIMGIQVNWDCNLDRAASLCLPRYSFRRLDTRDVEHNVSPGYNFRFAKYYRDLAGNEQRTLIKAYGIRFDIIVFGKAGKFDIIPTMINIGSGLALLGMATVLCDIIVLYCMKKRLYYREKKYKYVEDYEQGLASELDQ

For isotype control IgG NIP 228 (antibody), the Fraction of control at human P2X4 (Exp 1), mean, at 7.8 µM; QPatch electrophysiology, ATP-evoked currents (fraction of control) was 1.4 and the Fraction of control at human P2X4 (Exp 2), mean, at 7.8 µM; QPatch electrophysiology, ATP-evoked currents (fraction of control) was determined as 1.36.
